Measurements from patent US20190330298A1 (WORG PHARMACEUTICALS ZHEJIANG, published 2019).

Molecular target: T1, HLA-DRB1*0301 molecule (HLA-DR3 MHC class II of DR3tg mice) (human)
T1 construct: whole, on cells; MHC class II expressed by DR3tg mice (no mouse MHC II); the responding T cells came from DR3 mice; also called MHC II
Experiment: in vivo presentation test in DR3tg mice; binding inferred from IFN-γ response of peptide-specific T cells to isolated CD11c+ cells
Experimental: DR3tg or DR2tg mice were injected with 100 μg of peptide in 100 μl PBS subcutaneously (s.c.) in the flank. Control animals received a s.c. injection of 100 μl PBS. After 2 hours, spleens were harvested and single-cell suspensions were made. CD11c⁺ cells were positively selected using CD11c microbeads according to the manufacturer's instructions (Miltenyi Biotec, Bergisch Gladbach, Germany). Average purities of >92% were reached. 5×10⁴ CD11c⁺ cells were co-cultured with 5×10⁴ CD4⁺ cells in round bottom 96-well plates in X-vivo 15 medium (supplemented with 2 mM L-glutamine, 50 U/mL penicillin and 50 U/mL streptomycin; Lonza). […] After 48 hours, supernatant of these co-cultures was collected and CD4⁺ T cell activation was analysed by IFN-γ ELISA (R&D Systems, Abingdon, UK). In a parallel experiment, CD4⁺ T cell responses towards peptide added in vitro were assessed to make sure the T cells recognize the peptides presented by the CD11c⁺ cells.
In FIG. 15 the ability of HIP-115NE3 (insoluble peptide) and that of its soluble version, HIP-115NE3-KKK, to be picked up and presented by MHC II molecules present on dendritic cells (DC) upon sc. injection in an in vivo setting (DR3tg mice) was compared. […] T cell activity response was measured by production of IFN-γ. […]

binding result: binds
B1: HIP-115NE3-KKK (peptide)
peptide: H-KKKVIFKKISRDKSVTIYLGKKK-NH2
notes: Synthetic; HIP-115NE3 with KKK at both ends
